According to patent publication US8329178B2:

Columns and labels:
Assay in all cases: FACS, 293T cells expressing CXCR4 variants
ΔN25-CXCR4 (human) = ΔN25-CXCR4 (human) (UniProt P61073)
ΔN31-CXCR4 (human) = ΔN31-CXCR4 (human) (UniProt P61073)
[1] = target: CXCR2/CXCR4 chimera 4442 (human) (UniProt P61073)
[2] = target: CXCR2/CXCR4 chimera 2444b (human) (UniProt P61073)
[3] = target: CXCR2/CXCR4 chimera 2442 (human) (UniProt P61073)
[4] = target: human CXCR4 (wild type) (human) (UniProt P61073)

binding to cells expressing the variant (+%) (ΔN25-CXCR4 (human)): 69.2%
binding to cells expressing the variant (+%) (ΔN31-CXCR4 (human)): 55.4%
binding to cells expressing the variant (+%) [1]: 103%
binding to cells expressing the variant (+%) [2]: 70.1%
binding to cells expressing the variant (+%) [3]: 85.8%
binding to cells expressing the variant (+%) [4]: 100%
Substance: murine monoclonal antibody 12G5
